Laboratory results reported in article PMC6868441 (Nucleic Acids Research, 2019).

T1: ArlR full length (Staphylococcus aureus, UniProt Q9KJN4 1-219)
T1 sequence: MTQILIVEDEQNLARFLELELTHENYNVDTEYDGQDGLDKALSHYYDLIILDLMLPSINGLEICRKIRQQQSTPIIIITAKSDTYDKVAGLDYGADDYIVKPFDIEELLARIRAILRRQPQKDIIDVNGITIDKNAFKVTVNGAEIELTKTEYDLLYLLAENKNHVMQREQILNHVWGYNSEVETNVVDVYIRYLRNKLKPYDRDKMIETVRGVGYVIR

B1: ArlR-BdDNA-wt 24 bp (dsDNA)
DNA 1: TGATAGTATTTTAATTTGCAATAG
DNA 2: CTATTGCAAATTAAAATACTATCA
B2: Position 1,4&6 mutation 24 bp (dsDNA)
DNA 1: TGCTATTCTTTTAATTGGAAAGAG
DNA 2: CTCTTTCCAATTAAAAGAATAGCA
B3: ArlR receiver domain (amino acids 1–121) (domain or fragment, S. aureus, UniProt Q9KJN4 1-121, looked up)
chain: MTQILIVEDEQNLARFLELELTHENYNVDTEYDGQDGLDKALSHYYDLIILDLMLPSINGLEICRKIRQQQSTPIIIITAKSDTYDKVAGLDYGADDYIVKPFDIEELLARIRAILRRQPQ

Legend:
[1] = molecular target: T1, ArlR full length; experiment: EMSA
[2] = molecular target: the molecule itself; experiment: SEC

Row | Binder | binding result [1] | stoichiometry N [2]
1 | B1 | binds | 
2 | B2 | no binding | 
3 | B3 |  | 2
